Patent publication US20180037638A1

B1: C7 (antibody, V domains shown)
VH: EVQLVQSGAEMKKPGASMKVSCKTSGYTFARKYMHWLRQAPGQGLEWMGIINPTGGTKSYAPKFQGRVTMTSDMSTNTVYMELNSLRSEDTAVYYCVSDDEEPVWGQGTMVTVSS
VL: QSALTQPPSVSKGLRQTATLTCTGNSNNVGSQGAAWLQQHQGHPPKVLSYRNNNRPSGISERFSASRSGNTASLTITGLQPEDEGDYYCSAWDSSLSAPVFGGGTKLTVL
B2: E7 (antibody, V domains shown)
VH: EVQLVQSGAEVKKPGASVRVSCKTSGYSFTSYDINWVRQTTGQGLEWMGWVNPTSGSTGYAQKFQGRVTMTANTAINTAYMELRDLRSEDTAVYFCVRDVPFDPWGQGTLVTVSS
VL: LQSVLTQPASVSGSPGQSITISCTGTSSDVGKYTFVSWYQQHPGKAPKVMVYEVNKRPLGVSPRFSGSKSGNTAYLTISGLQAEDEADYYCSSYTSSSTVVFGGGTKLTVL
B3: D3 (antibody, V domains shown)
VH: EVQLVQSGAEVKKPGSSVKVSCKAYGGTFGSYGVSWVRRAPGQGLEWMGRLIPIFGTRDYAQKFQGRVTLTADESTNTAYMELSSLRSEDTAVYYCARDGDYYGSGSYYGMDVWGQGTLVTVSS
VL: SYELTQPPSASGSPGQSVTISCTGTSSDVGGYNYVSWYQQHPGKAPKVMIYEVSKRPSGVSNRFSGSKSGNTASLTISGLQAEDEADYYCSSYTSSSTHVVFGGGTKVTVL

Tests used:
[1] = target: auto-inducing peptide (AIP) 2 (Staphylococcus aureus); test: cell-based or functional assay
[2] = target: auto-inducing peptide (AIP) 2 (Staphylococcus aureus); test: SPR, antibody immobilized on CM5 chip, AIP2 as analyte, 1:1 Langmuir fit

Binder | Inhibition of AIP2 QS (IC50; nM), agr-driven YFP reporter strain USA100-AH2619 [1] [nM] | Inhibition of AIP2 QS (IC50; nM), agr-driven YFP reporter strain USA100-AH2625 [1] [nM] | Kd [2] [nM]
B1 | 33.7 | 31.2 | 
B2 | 34.2 | 31 | 
B3 |  |  | 49
